Data published in the supplement of paper PMC10567573.

B1: SERPINB5 (parent)
chain: FPESETKECPFRVNKVCGAACSSK

Variants of: B1
Experiment: protein stability index of a GFP-peptide fusion (GPS, HEK-293T) (PSI 1-6); higher = more stable
Details: c terminus: a fixed tail appended
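Further: lentivirally expressed fusions sorted by FACS into six bins by GFP to DsRed ratio, PSI derived from sequencing read proportions per bin multiplied by bin number.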

Protein stability index, by site and new letter:
K7: L 2.5, A 2.43, I 2.55, E 2.78, G 2.52, M 2.5, T 3.1, H 3.36, V 2.53, D 3.22, S 2.69, R 2.88, Q 2.86, C 3.21, F 1.89, P 2.76, W 1.34
P10: S 3.96, K 3.75, E 4.31, D 4.78, T 3.67, I 2.53, G 4.1, V 3.05, M 3.41, Q 3.58, L 2.14, H 3.62, N 4.02, Y 2.3, R 3.63, A 2.95, C 3.05, F 2.55
S4: F 2.54, T 3.34, E 4.53, P 3.49, V 3.08, W 2.03, A 2.46, H 2.62, R 2.76, L 2.35, I 2.72, C 3.16, Y 2.9, G 2.25, M 2.48, N 3.17, D 4.14, K 3.78, Q 3.83
R12: F 3.56, I 2.57, L 2.68, P 4.75, T 3.84, C 4.62, N 3.66, K 3.57, Y 3.43, W 2.87, H 3.83, V 2.43, Q 3.36, E 4.59, S 3.95, A 3.76, M 2.86, D 4.86, G 4.11
C9: K 4.37, A 4.49, H 1.83, V 4.4, T 2.64, G 2.82, S 2.15, D 3.87, M 3.81, E 4.84, Q 4.03, F 1.81, N 3, P 4.51, Y 2.92, I 4.39, W 2.07, L 3.6, R 4.34
E8: M 1.86, I 2.13, C 2.23, N 2.17, S 2.14, F 1.97, K 3.04, W 1.66, R 1.82, Q 1.98, V 2.59, D 2.16, A 2.25, G 1.9, T 2.6, Y 1.93, L 2.33, P 2.29, H 2.14
P2: V 2.13, E 4.59, S 3.66, A 2.02, R 4.19, I 2.07, Q 3.73, D 4.73, T 2.26, N 3.63, L 3.57, G 3.59, H 2.19, K 4.63, W 3.64, M 3.77, Y 3.67, F 4.09, C 2.31
E5: P 3.05, D 1.92, G 1.68, T 2.11, F 1.6, R 1.9, L 1.78, C 1.72, H 1.4, K 1.67, I 1.8, M 2.35, Y 1.87, V 2.52, A 1.88, S 1.97, Q 1.4, N 1.89
V13: H 4.26, A 3.14, D 4.31, M 3.1, G 3.81, T 3.54, L 3.19, P 3.02, Q 4.03, K 3.93, W 2.19, C 3.09, I 2.6, S 3.66, F 2.59, N 3.71, E 4.17, Y 2.03, R 3.59
